Measured values from publication PMC8803112.

Key:
[1] = biological target: C1s complement protein (human)
[2] = biological target: C1r complement protein (human)
[3] = biological target: C3 complement protein (human)

Question: “complement evasion factor (CEF), recombinant Spy0136 (from UniProt Q9A1R6 28-221) (natural protein)” was tested. Which Wieslab complement assay, classical pathway activity (C5b-9 formation) of serum pre-incubated with 2 µM rCEF [1] did it give?
Answer: The Wieslab complement assay, classical pathway activity (C5b-9 formation) of serum pre-incubated with 2 µM rCEF was < 10 % activity.

Question: And the Wieslab complement assay, classical pathway activity (C5b-9 formation) of serum pre-incubated with 2 µM rCEF [2]?
Answer: The Wieslab complement assay, classical pathway activity (C5b-9 formation) of serum pre-incubated with 2 µM rCEF was < 10 % activity.

Question: What about the C3b deposition on S. pyogenes opsonised with human serum with 0.5 µM rCEF, flow cytometry [3] of the same substance?
Answer: The C3b deposition on S. pyogenes opsonised with human serum with 0.5 µM rCEF, flow cytometry was 30 % decrease.
